Read-outs that look alike come from different tables or passages of the source.

Test [1] concerns the target T1, FcγRIIIa extracellular domain with C-terminal His tag (human, UniProt P08637 17-208).
T1 construct: extracellular domain; also called FcgRIIIa; 3a; not shown: His tag at the C terminus
In words: SPR relative binding; GpH7-A5/GpH7-B3/GpL16-k0 = 100. The text has this: First, variants of interest were expressed and prepared according to the method described in Reference Example 1, using GpH7-A5 as an H chain; and GpL16-k0 as the L chain; and as the other H chain, GpH7-HA5 (SEQ ID NO: 19), GpH7-HA6 (SEQ ID NO: 20), and GpH7-HA11 (SEQ ID NO: 21) resulting from the introduction of L234Y, G236W, and S298A, respectively, into GpH7-B12 introduced with the alteration P329R. Furthermore, antibodies of interest were expressed and prepared according to the method described in Reference Example 1, using as an H chain, GpH7-A48 (SEQ ID NO: 16) resulting from the introduction of P329R into GpH7-A5; and GpL16-k0 as the L chain; and as the other H chain, GpH7-B3-01-15Y (SEQ ID NO: 22), GpH7-B3-03-20W (SEQ ID NO: 23), and GpH7-B3-15-02A (SEQ ID NO: 24) resulting from the introduction of L234Y, G236W, and S298A, respectively, into GpH7-B3. The antibodies thus obtained were named GpH7-A5/GpH7-HA5/GpL16-k0 (SEQ ID NOs: 3, 19, and 5, respectively), GpH7-A5/GpH7-HA6/GpL16-k0 (SEQ ID NOs: 3, 20, and 5, respectively), GpH7-A5/GpH7-HA11/GpL16-k0 (SEQ ID NOs: 3, 21, and 5, respectively), GpH7-A48/GpH7-B3-01-15Y/GpL16-k0 (SEQ ID NOs: 16, 22, and 5, respectively), GpH7-A48/GpH7-B3-03-20W/GpL16-k0 (SEQ ID NOs: 16, 23, and 5, respectively), and GpH7-A48/GpH7-B3-15-02A/GpL16-k0 (SEQ ID NO: 16, 24, and 5, respectively). The variants were compared to each other for the FcγRIIIa-binding activity according to the method described in Reference Example 2.
Analysis of interaction between objective antibody and the FcγR was carried out using Biacore T100 (GE Healthcare). HBS-EP+ (GE Healthcare) was used as the running buffer, and the measurement temperature was set to 25° C. Chips produced by immobilizing the antigen peptide by the amine coupling method to a Series S Sencor Chip CM5 (GE Healthcare), or alternatively, chips produced by allowing preliminarily biotinylated antigen peptides to interact with and immobilize onto a Series S Sensor Chip SA (certified) (GE Healthcare) were used. Antibodies of interest were captured onto an antigen peptide-immobilized chip, and allowed to interact to each FcγR diluted with running buffer. To regenerate and repeatedly use the chip, the antibodies captured on the chip were washed off by reacting 10 mM glycine-HCl, pH 1.5.

The target in test [2] is T2, FcgRIIa R (human, UniProt P12318 34-217).
T2 construct: extracellular domain; also called FcγRIIa R; FcγRIIa type R; not shown: His tag attached to the C terminus
T2 sequence (looked up): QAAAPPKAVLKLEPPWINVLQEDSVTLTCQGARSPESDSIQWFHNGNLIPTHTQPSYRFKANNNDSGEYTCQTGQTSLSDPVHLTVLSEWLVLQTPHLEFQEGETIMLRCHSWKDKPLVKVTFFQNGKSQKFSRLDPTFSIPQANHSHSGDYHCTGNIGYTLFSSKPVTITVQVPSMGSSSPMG
In words: SPR (Biacore), antibody captured on chip, FcgR extracellular domain as analyte. How it is done: (§1) Analysis of interaction between obj ective antibody and the FcγR was carried out using Biacore T100 (GE Healthcare), Biacore T200, Biacore A100, and Biacore 4000. HBS-EP+ (GE Healthcare) was used as the running buffer, and the measurement temperature was set to 25° C. Chips produced by immobilizing the antigen peptide by the amine coupling method to a Series S sensor Chip CM5 (GE Healthcare), chips produced by allowing preliminarily biotinylated antigen peptides to interact with and immobilize onto a Series S Sensor Chip SA (certified) (GE Healthcare), chips produced by immobilizing Protein L (ACTIGEN, BioVision) to Series S Sencor Chip CM5 (GE Healthcare), or chips produced by immobilizing Protein A/G (Thermo Scientific) to Series S Sencor Chip CM5 (GE Healthcare) were used. Antibodies of interest were captured onto these chips, and allowed to interact to each FcγR diluted with running buffer. To regenerate and repeatedly use the chip, the antibodies captured onto the chip were washed off by reacting 10 mM glycine-HCl, pH 1.5.
For orientation: In SPR one partner is held on a chip, and binding of the other changes the refractive index at the surface.

The target in test [3] is T3, FcgRIIa H (human, UniProt P12318 34-217).
T3 construct: extracellular domain; also called FcγRIIa H; FcγRIIa type H; not shown: His tag attached to the C terminus
T3 sequence (looked up): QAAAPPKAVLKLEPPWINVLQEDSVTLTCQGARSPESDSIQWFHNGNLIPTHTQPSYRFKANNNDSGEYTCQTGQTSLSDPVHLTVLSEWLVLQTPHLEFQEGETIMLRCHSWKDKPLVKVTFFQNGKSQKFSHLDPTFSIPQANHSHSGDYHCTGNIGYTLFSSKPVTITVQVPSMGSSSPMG
The description is as above. As to the method: as §1

Test [4] has as its target T4, FcgRIIIa F (human, UniProt P08637 17-208).
T4 construct: extracellular domain; also called FcγRIIIa F; not shown: His tag attached to the C terminus
Described as above. As to the method: as §1

For test [5], the target named is T5, FcgRIIIa V (human, UniProt P08637 17-208).
T5 construct: extracellular domain; also called FcγRIIIa V; not shown: His tag attached to the C terminus
The description is as above. How it is done: as §1

A further test deals with T6, FcgRIa (human, UniProt P12314 16-292).
T6 construct: extracellular domain; Expressed in FreeStyle293 cells and purified; used as analyte in Biacore; also called FcγRIa; FcγRI; not shown: His tag attached to the C terminus
The description is as above. How it is done:
(§2) Specifically, H240-Kn120 (SEQ ID NO: 99) resulting from introduction of S239M into H240-Kn067 and H240-Kn126 (SEQ ID NO: 100) resulting from introduction of Y235Q into H240-Kn120 were prepared according to the method described in Reference Example 1. […] Those described above were assayed for the binding to each FcgR according to the method described in Reference Example 8.
as §1

Test [6] has as its target T2, FcgRIIa R. The description is as above. As to the method:
as §2, §1
The source holds these as a separate data set.

In test [7] the target is T3, FcgRIIa H. The description is as above. As to the method: as §2, §1
The source holds these as a separate data set.

The target of a further test is T7, FcgRIIb (human, UniProt P31994 43-217).
T7 construct: extracellular domain; Expressed in FreeStyle293 cells and purified; used as analyte in Biacore; also called FcγRIIb; CD32B; not shown: His tag attached to the C terminus
T7 sequence (looked up): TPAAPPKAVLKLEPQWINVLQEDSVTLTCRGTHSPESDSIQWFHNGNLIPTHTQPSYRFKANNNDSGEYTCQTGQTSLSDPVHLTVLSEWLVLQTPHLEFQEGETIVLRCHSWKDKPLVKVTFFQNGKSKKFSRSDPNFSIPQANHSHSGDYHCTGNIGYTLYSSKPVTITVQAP
The description is as above. How it is done:
as §2, §1

Test [8] deals with T4, FcgRIIIa F. Described as above. How it is done:
as §2, §1
This is another data set of the same source.

The target in test [9] is T5, FcgRIIIa V. Described as above. How it is done: as §2, §1
The source holds these as a separate data set.

T5 sequence (P08637 17-208 F176V limits assumed): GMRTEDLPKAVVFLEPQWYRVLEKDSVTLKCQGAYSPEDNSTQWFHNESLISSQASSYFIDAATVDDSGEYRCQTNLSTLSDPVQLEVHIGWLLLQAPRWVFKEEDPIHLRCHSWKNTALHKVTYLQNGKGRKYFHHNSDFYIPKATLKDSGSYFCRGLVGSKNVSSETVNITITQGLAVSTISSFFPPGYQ
T1 sequence (P08637 17-208): as the sequence (P08637 17-208 F176V limits assumed) above, with V160F counted along it
T4 sequence (P08637 17-208): as the sequence (P08637 17-208 F176V limits assumed) above, with V160F counted along it
T6 sequence (P12314 16-292): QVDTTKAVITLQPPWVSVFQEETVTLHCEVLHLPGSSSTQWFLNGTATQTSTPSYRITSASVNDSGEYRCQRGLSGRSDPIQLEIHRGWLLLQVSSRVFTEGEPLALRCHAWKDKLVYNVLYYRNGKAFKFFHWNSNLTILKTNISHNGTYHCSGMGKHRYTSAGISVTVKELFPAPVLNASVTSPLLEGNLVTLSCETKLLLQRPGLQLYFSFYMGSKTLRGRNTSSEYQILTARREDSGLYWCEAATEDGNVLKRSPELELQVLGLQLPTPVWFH

B1: GpH7-A5/GpH7-HA5/GpL16-k0 (antibody, human IgG1, kappa)
heavy 1: not shown
heavy 2: QVQLVQSGAEVKKPGASVTVSCKASGYTFTDYEMHWIRQPPGEGLEWIGAIDPKTGDTAYSESFQDRVTLTADKSTSTAYMELSSLTSEDTAVYYCTRFYSYTYWGQGTLVTVSSASTKGPSVFPLAPSSKSTSGGTAALGCLVKDYFPEPVTVSWNSGALTSGVHTFPAVLQSSGLYSLSSVVTVPSSSLGTQTYICNVNHKPSNTKVDKKVEPKSCDKTHTCPPCPAPEYLGGPSVFLFPPKPKDTLMISRTPEVTCVVVDVSHEDPEVKFNWYVDGVEVHNAKTKPREEQYNSTYRVVSVLTVLHQDWLNGKEYKCKVSNKALRAPIEKTISKAKGQPREPQVYTLPPSRDELTKNQVSLTCLVKGFYPSDIAVEWESNGQPENNYKTTPPVLDSDGSFFLYSKLTVDKSRWQQGNVFSCSVMHEALHNHYTQESLSLSP
light: DIVMTQSPLSLPVTPGEPASISCQASESLVHSNRNTYLHWYLQKPGQSPQLLIYKVSNRFSGVPDRFSGSGSGTDFTLKISRVEAEDVGVYYCSQNTHVPPTFGQGTKVEIERTVAAPSVFIFPPSDEQLKSGTASVVCLLNNFYPREAKVQWKVDNALQSGNSQESVTEQDSKDSTYSLSSTLTLSKADYEKHKVYACEVTHQGLSSPVTKSFNRGEC
notes: H2 L234Y and P329R
On to B1, for which, in test [1], the “FcγRIIIa BINDING ACTIVITY” value was 60 % of control.

B2: GpH7-A5/GpH7-HA6/GpL16-k0 (antibody, human IgG1, kappa)
heavy 1: not shown
heavy 2: QVQLVQSGAEVKKPGASVTVSCKASGYTFTDYEMHWIRQPPGEGLEWIGAIDPKTGDTAYSESFQDRVTLTADKSTSTAYMELSSLTSEDTAVYYCTRFYSYTYWGQGTLVTVSSASTKGPSVFPLAPSSKSTSGGTAALGCLVKDYFPEPVTVSWNSGALTSGVHTFPAVLQSSGLYSLSSVVTVPSSSLGTQTYICNVNHKPSNTKVDKKVEPKSCDKTHTCPPCPAPELLWGPSVFLFPPKPKDTLMISRTPEVTCVVVDVSHEDPEVKFNWYVDGVEVHNAKTKPREEQYNSTYRVVSVLTVLHQDWLNGKEYKCKVSNKALRAPIEKTISKAKGQPREPQVYTLPPSRDELTKNQVSLTCLVKGFYPSDIAVEWESNGQPENNYKTTPPVLDSDGSFFLYSKLTVDKSRWQQGNVFSCSVMHEALHNHYTQESLSLSP
light: DIVMTQSPLSLPVTPGEPASISCQASESLVHSNRNTYLHWYLQKPGQSPQLLIYKVSNRFSGVPDRFSGSGSGTDFTLKISRVEAEDVGVYYCSQNTHVPPTFGQGTKVEIERTVAAPSVFIFPPSDEQLKSGTASVVCLLNNFYPREAKVQWKVDNALQSGNSQESVTEQDSKDSTYSLSSTLTLSKADYEKHKVYACEVTHQGLSSPVTKSFNRGEC
notes: H2 G236W and P329R
In the case of B2, the “FcγRIIIa BINDING ACTIVITY” value in [1] was 56 % of control.

B3: H240-Kn067/H240-Hl068/L73-k0 (antibody, human IgG1, kappa)
heavy 1: QDQLVQSGAEVKKPGASVKVSCKASGFNIKDTYIQWVRQAPGQGLEWMGRIDPLRKQTKYREKFEGRVTITADTSTNTAYMELSSLRSEDTAVYYCVRSGREFDYWGQGTLVTVSSASTKGPSVFPLAPSSKSTSGGTAALGCLVKDYFPEPVTVSWNSGALTSGVHTFPAVLQSSGLYSLSSVVTVPSSSLGTQTYICNVNHKPSNTKVDKKVEPKSCDKTHTCPPCPAPEYYWGPSVFLFPPKPKDTLMISRTPEVTCVVVDVSDEDPEVKFNWYVDGVEVHNAKTKPREEQYNATYRVVSVLTVLHQDWLNGKEYKCKVSNKDLPAPIEKTISKAKGQPREPQVCTLPPSRDELTKNQVSLWCLVKGFYPSDIAVEWESNGQPENNYKTTPPVLDSDGSFFLYSKLTVDKSRWQQGNVFSCSVMHEALHNHYTQKSLSLSP
heavy 2: QDQLVQSGAEVKKPGASVKVSCKASGFNIKDTYIQWVRQAPGQGLEWMGRIDPLRKQTKYREKFEGRVTITADTSTNTAYMELSSLRSEDTAVYYCVRSGREFDYWGQGTLVTVSSASTKGPSVFPLAPSSKSTSGGTAALGCLVKDYFPEPVTVSWNSGALTSGVHTFPAVLQSSGLYSLSSVVTVPSSSLGTQTYICNVNHKPSNTKVDKKVEPKSCDKTHTCPPCPAPELLGGPSVFLFPPKPKDTLMISRTPEVTCVVVDVSHEEPEVKFNWYVDGVEVHNAKTKPREEQYNSTYRVVSVLTVLHQDWLNGKEYKCKVSNDALPKPIEETISKAKGQPREPQVYTLPPSRCELTKNQVSLSCAVKGFYPSDIAVEWESNGQPENNYKTTPPVLDSDGSFFLVSKLTVDKSRWQQGNVFSCSVMHEALHNHYTQKSLSLSP
light: DIQMTQSPSSLSASVGDRVTITCRASQDIHKYIAWYQQKPGQAPRLLIQYTSTLQPGVPSRFSGSGSGTDYTFTISSLQPEDIATYYCLQYEQLRTFGGGTKVEIKRTVAAPSVFIFPPSDEQLKSGTASVVCLLNNFYPREAKVQWKVDNALQSGNSQESVTEQDSKDSTYSLSSTLTLSKADYEKHKVYACEVTHQGLSSPVTKSFNRGEC
notes: Heterodimerized anti-EREG IgG1: L234Y/L235Y/G236W/H268D/S298A/A327D in Kn067, D270E/K326D/A330K/K334E in Hl068; also called H240-Kn067/H240-HI068/L73-k0
B3: the Kd (in general, the constant that tells how readily two partners part at equilibrium) turned out to be 49 nM in the test with FcgRIIa R [2]; 94 nM in the test with FcgRIIa H [3]; 7.1 nM with FcgRIIIa F [4]; 1.6 nM in the test with FcgRIIIa V [5]; 0.26 nM with FcgRIa; 49 nM in the test with FcgRIIa R [6]. The Kd was found to be 94 nM with FcgRIIa H [7], 370 nM with FcgRIIb, 7.1 nM with FcgRIIIa F [8] and 1.6 nM in the test with FcgRIIIa V [9].

The values above are taken from patent publication US20180155451A1 (published 2018).
